Experiments:
P68135 = assay: depolymerisation of single filaments in a microfluidic flow (fluorescence microscopy); filaments grown from MgATP-actin, depolymerised in F-buffer (pH 7.8, 100 mM KCl, 1 mM MgCl2); velocities from an exponential fit of 1/vdepol against the age of F-actin, and from a direct fit of length …; details: other: depolymerisation of single filaments in a microfluidic flow (fluorescence microscopy)
[1] = target: Actin purified from rabbit muscle (rabbit) (UniProt P68135); assay: depolymerisation of single filaments in a microfluidic flow (fluorescence microscopy); filaments grown from MgATP-actin, depolymerised in F-buffer (pH 7.8, 100 mM KCl, 1 mM MgCl2); velocities from an exponential fit of 1/vdepol against the age of F-actin, and from a direct fit of length against time; room temperature
[2] = target: Actin purified from rabbit muscle (rabbit) (UniProt P68135); assay: depolymerisation of single filaments in a microfluidic flow (fluorescence microscopy); MgADP-actin filaments depolymerising at different profilin concentrations; saturation curve of the off-rate fitted assuming profilin in rapid equilibrium with the barbed end; room temperature
[3] = target: Actin purified from rabbit muscle (rabbit) (UniProt P68135); assay: depolymerisation of single filaments in a microfluidic flow (fluorescence microscopy); CrATP-actin filaments (as ADP-Pi-actin) depolymerising at different profilin concentrations; saturation curve of the off-rate fitted assuming profilin in rapid equilibrium with the barbed end; room temperature

Actin purified from rabbit muscle
global depolymerization velocity of ADP-Pi-actin subunits at the barbed end (direct fit of length against time) (P68135): 1.5 subunits/s
global depolymerization velocity of ADP-Pi-actin subunits at the barbed end (dissociation as ADP-Pi-actin, or Pi release and then dissociation; exponential fit) (P68135): 1.5±0.4 subunits/s

Actin purified from rabbit muscle (from UniProt P68135 1-377) (natural protein)
depolymerization velocity of ADP-actin subunits at the barbed end (direct fit of length against time) [1]: 6 subunits/s
depolymerization velocity of ADP-actin subunits at the barbed end (exponential fit) [1]: 6.2 subunits/s

profilin-actin (from UniProt P62962 1-140; P68135 1-377) (complex)
koff [2]: 51.6 s⁻¹
koff [3]: 4.7 s⁻¹
